Assay results reported in publication PMC4014428, “Enhanced Interaction between Pseudokinase and Kinase Domains in Gcn2 stimulates eIF2α Phosphorylation in Starved Cells” (PLoS Genetics, 2014).

Experiments:
[1] = target: T1, HA epitope-tagged LexA fusion to a Gcn2 KD segment (residues 720–999) (S. cerevisiae, UniProt P15442 720-999); test: co-IP; [35S]methionine-labelled in vitro translated YKD fragments incubated with 50 µg WCE of gcn2Δ yeast HQY132 expressing LexA-HA-KD(720–999); anti-HA agarose, 4°C 2 h, breaking buffer (50 mM Tris/HCl pH 7.5, 50 mM NaCl, 0.1% Triton, 1 mM DTT); SDS-PAGE and fluorography; pellet:input ratios normalised to WT YKD; conditions: partners not purified
T1 construct: the plasmid is PGAL-LexA-HA-GCN2 (720–999); also called HA-LexA-KD; LexA-HA-KD; source: yeast gcn2Δ strain HQY132, high-copy-number plasmid, in whole cell extract; not shown: LexA, N-terminal, kept; HA, N-terminal, kept

[2] = target: T1, HA epitope-tagged LexA fusion to a Gcn2 …; test: co-IP; WCEs (50 µg protein) of gcn2Δ yeast HQY132 co-expressing LexA-HA-KD(720–999) and Gcn2 (WT or mutant) immunoprecipitated with anti-HA antibodies; blots with anti-Gcn2 and anti-LexA; pellet:input ratios of Gcn2 normalised to LexA-HA-KD in the pellet, three experiments; conditions: partners not purified

Row | Binder | level co-immunoprecipitated relative to WT YKD [1] | proportion co-immunoprecipitated relative to WT Gcn2 [2]
1 | Gcn2 YKD fragment (230–604) L527I (domain or fragment, S. cerevisiae, UniProt P15442 230-604, looked up, [35S]-methionine-labeled, Gcn2 YKD segment, S. cerevisiae, residues 230-604; also called L527I YKD fragment; source: in vitro translated (TNT T7 Coupled Reticulocyte Lysate System), partially purified by ammonium sulfate precipitation) MFKFKAVVNPKPIKLTSDIFSFSKQFLVKPYIPPESPLADFLMSSEMMENFYYLLSEIELDNSYFNTSNGKKEIANLEKELETVLKAKHDNVNRLFGYTVERMGRNNATFVWKIRLLTEYCNYYPLGDLIQSVGFVNLATARIWMIRLLEGLEAIHKLGIVHKCINLETVILVKDADFGSTIPKLVHSTYGYTVLNMLSRYPNKNGSSVELSPSTWIAPELLKFNNAKPQRLTDIWQLGVLFIQIISGSDIVMNFETPQEFLDSTSMDETLYDLLSKMLNNDPKKRLGTLELLPMKFIRTNIDSTINRFNLVSESVNSNSLELTPGDTITVRGNGGRTLSQSSIRRRSFNVGSRFSSINPATRSRYASDFEEIAV | ~4 fold of WT | 
2 | Gcn2 YKD fragment (230–604) R528A (domain or fragment, S. cerevisiae, UniProt P15442 230-604, looked up, [35S]-methionine-labeled, Gcn2 YKD segment, S. cerevisiae, residues 230-604; also called R528A YKD fragment; source: in vitro translated (TNT T7 Coupled Reticulocyte Lysate System), partially purified by ammonium sulfate precipitation) MFKFKAVVNPKPIKLTSDIFSFSKQFLVKPYIPPESPLADFLMSSEMMENFYYLLSEIELDNSYFNTSNGKKEIANLEKELETVLKAKHDNVNRLFGYTVERMGRNNATFVWKIRLLTEYCNYYPLGDLIQSVGFVNLATARIWMIRLLEGLEAIHKLGIVHKCINLETVILVKDADFGSTIPKLVHSTYGYTVLNMLSRYPNKNGSSVELSPSTWIAPELLKFNNAKPQRLTDIWQLGVLFIQIISGSDIVMNFETPQEFLDSTSMDETLYDLLSKMLNNDPKKRLGTLELLPMKFLATNIDSTINRFNLVSESVNSNSLELTPGDTITVRGNGGRTLSQSSIRRRSFNVGSRFSSINPATRSRYASDFEEIAV | 60 % of WT | 

Further lines, results first:

Row | level co-immunoprecipitated relative to WT YKD [1] | proportion co-immunoprecipitated relative to WT Gcn2 [2] | Binder
3 | ~4 fold of WT |  | Gcn2 YKD fragment (230–604) T518A/L527I (domain or fragment, S. cerevisiae, UniProt P15442 230-604, looked up, [35S]-methionine-labeled, Gcn2 YKD segment, S. cerevisiae, residues 230-604; also called T518A/L527I YKD fragment; source: in vitro translated (TNT T7 Coupled Reticulocyte Lysate System), partially purified by ammonium sulfate precipitation) MFKFKAVVNPKPIKLTSDIFSFSKQFLVKPYIPPESPLADFLMSSEMMENFYYLLSEIELDNSYFNTSNGKKEIANLEKELETVLKAKHDNVNRLFGYTVERMGRNNATFVWKIRLLTEYCNYYPLGDLIQSVGFVNLATARIWMIRLLEGLEAIHKLGIVHKCINLETVILVKDADFGSTIPKLVHSTYGYTVLNMLSRYPNKNGSSVELSPSTWIAPELLKFNNAKPQRLTDIWQLGVLFIQIISGSDIVMNFETPQEFLDSTSMDETLYDLLSKMLNNDPKKRLGALELLPMKFIRTNIDSTINRFNLVSESVNSNSLELTPGDTITVRGNGGRTLSQSSIRRRSFNVGSRFSSINPATRSRYASDFEEIAV
4 |  | ~0.33 fraction of WT | Gcn2-ΔYKD (enzyme, S. cerevisiae, UniProt P15442 1-1659, looked up, Gcn2, S. cerevisiae, otherwise full length, lacking the pseudokinase domain (YKD); also called gcn2-Δ324-538; source: yeast gcn2Δ strain HQY132, high-copy plasmid (p630 backbone), in whole cell extract) MSLSHLTLDQYYEIQCNELEAIRSIYMDDFTDLTKRKSSWDKQPQIIFEITLRSVDKEPVESSITLHFAMTPMYPYTAPEIEFKNVQNVMDSQLQMLKSEFKKIHNTSRGQEIIFEITSFTQEKLDEFQNVVNTQSLEDDRLQRIKETKEQLEKEEREKQQETIKKRSDEQRRIDEIVQRELEKRQDDDDDLLFNRTTQLDLQPPSEWVASGEAIVFSKTIKAKLPNNSMFKFKAVVNPKPIKLTSDIFSFSKQFLVKPYIPPESPLADFLMSSEMMENFYYLLSEIELDNSYFNTSNGKKEIANLEKELETVLKAKHDNVNRNLVSESVNSNSLELTPGDTITVRGNGGRTLSQSSIRRRSFNVGSRFSSINPATRSRYASDFEEIAVLGQGAFGQVVKARNALDSRYYAIKKIRHTEEKLSTILSEVMLLASLNHQYVVRYYAAWLEEDSMDENVFESTDEESDLSESSSDFEENDLLDQSSIFKNRTNHDLDNSNWDFISGSGYPDIVFENSSRDDENEDLDHDTSSTSSSESQDDTDKESKSIQNVPRRRNFVKPMTAVKKKSTLFIQMEYCENRTLYDLIHSENLNQQRDEYWRLFRQILEALSYIHSQGIIHRDLKPMNIFIDESRNVKIGDFGLAKNVHRSLDILKLDSQNLPGSSDNLTSAIGTAMYVATEVLDGTGHYNEKIDMYSLGIIFFEMIYPFSTGMERVNILKKLRSVSIEFPPDFDDNKMKVEKKIIRLLIDHDPNKRPGARTLLNSGWLPVKHQDEVIKEALKSLSNPSSPWQQQVRESLFNQSYSLTNDILFDNSVPTSTPFANILRSQMTEEVVKIFRKHGGIENNAPPRIFPKAPIYGTQNVYEVLDKGGTVLQLQYDLTYPMARYLSKNPSLISKQYRMQHVYRPPDHSRSSLEPRKFGEIDFDIISKSSSESGFYDAESLKIIDEILTVFPVFEKTNTFFILNHADILESVFNFTNIDKAQRPLVSRMLSQVGFARSFKEVKNELKAQLNISSTALNDLELFDFRLDFEAAKKRLYKLMIDSPHLKKIEDSLSHISKVLSYLKPLEVARNVVISPLSNYNSAFYKGGIMFHAVYDDGSSRNMIAAGGRYDTLISFFARPSGKKSSNTRKAVGFNLAWETIFGIAQNYFKLASGNRIKKRNRFLKDTAVDWKPSRCDVLISSFSNSLLDTIGVTILNTLWKQNIKADMLRDCSSVDDVVTGAQQDGIDWILLIKQQAYPLTNHKRKYKPLKIKKLSTNVDIDLDLDEFLTLYQQETGNKSLINDSLTLGDKADEFKRWDENSSAGSSQEGDIDDVVAGSTNNQKVIYVPNMATRSKKANKREKWVYEDAARNSSNMILHNLSNAPIITVDALRDETLEIISITSLAQKEEWLRKVFGSGNNSTPRSFATSIYNNLSKEAHKGNRWAILYCHKTGKSSVIDLQR
